Results: US20220362394A1 (SUTRO BIOPHARMA, published 2022)

T1: human BCMA-Fc (human, UniProt Q02223 1-54)
T1 construct: Bought from R&D Systems; also called huBCMA-Fc; not shown: Fc part not described
T1 sequence: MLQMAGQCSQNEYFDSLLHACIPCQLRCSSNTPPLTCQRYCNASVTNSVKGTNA

T2: human BCMA on cells (human, UniProt Q02223 1-184)
T2 construct: also called hBCMA; BCMA on NCI-H929, ARP-1, OPM-2, U266B1, MM.1S, RPMI-8226 cells
T2 sequence: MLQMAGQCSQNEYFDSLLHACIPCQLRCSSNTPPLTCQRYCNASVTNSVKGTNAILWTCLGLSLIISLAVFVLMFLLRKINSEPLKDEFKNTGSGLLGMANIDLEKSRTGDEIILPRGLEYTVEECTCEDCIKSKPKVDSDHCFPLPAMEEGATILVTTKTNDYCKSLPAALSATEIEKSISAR


Legend:
cyno BCMA-Fc = target: T3, cyno BCMA-Fc (cynomolgus monkey, UniProt Q02223 1-54 (human entry)); assay: ELISA, coated cynoBCMA-Fc
T3 construct: Custom protein production; also called cynomolgus BCMA-Fc; not shown: Fc part not described

human BCMA-Fc [1] = target: T1, human BCMA-Fc; assay: SPR Biacore, antibody captured, 25 C
Procedure: Anti-Fab or anti-Fc polyclonal antibodies were immobilized onto a CM5 chip (GE Life Sciences) using amine coupling chemistry (from Amine Coupling Kit, GE Life Sciences). The immobilization steps were carried out at a flow rate of 25 μL/min in 1×HBS-EP+ buffer (GE Life Sciences; 10× Stock diluted before use). The sensor surfaces were activated for 7 min with a mixture of NHS (0.05 M) and EDC (0.2 M). The anti-Fab or anti-Fc antibodies were injected over all 4 flow cells at a concentration of 25 μg/ml in 10 mM sodium acetate, pH 4.5, for 7 min. Ethanolamine (1 M, pH 8.5) was injected for 7 min to block any remaining activated groups.
Off-rate and kinetic binding experiments were performed at 25° C. using 1×HBS-EP+ buffer. […] After capturing ligand (antibody) on the anti-Fab or anti-Fc surface, the analyte (human BCMA-Fc, cyno BCMA-Fc, or human BCMA from R&D Systems, custom protein production, or Sigma Aldrich, respectively) was bound for 180 seconds, followed by a 600 second dissociation phase at a flow rate of 50 μL/min. Between each ligand capture and analyte binding cycle, regeneration was carried out using 2 injections of 10 mM glycine pH 2.0 for 30 seconds at 30 μL/min, followed by a 30 second buffer wash step.
The data was fit with the Biacore T200 Evaluation software, using a 1-1 Langmuir binding model. KD (affinity, nM) was determined as a ratio of the kinetic rate constants calculated from the fits of the association and dissociation phases.

human BCMA-Fc [2] = target: T1, human BCMA-Fc; assay: ELISA, coated huBCMA-Fc
cynomolgus BCMA on cells = cynomolgus BCMA on cells (cynomolgus monkey, UniProt Q02223 1-184 (human entry)); assay: FACS, 293T-cynoBCMA cells
Sequence of cynomolgus BCMA on cells (Q02223 other isoform, or with tags, fused parts or gaps): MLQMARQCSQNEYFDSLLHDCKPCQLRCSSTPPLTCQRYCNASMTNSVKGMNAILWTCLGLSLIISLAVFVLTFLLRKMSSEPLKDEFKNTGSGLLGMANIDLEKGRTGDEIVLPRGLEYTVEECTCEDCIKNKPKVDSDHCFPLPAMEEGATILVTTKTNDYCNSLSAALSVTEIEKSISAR
Procedure: (§1) Variants for which sufficient protein was purified in secondary screening were tested in a fluorescence-activated cell sorting (FACS) cell-binding assay. […] 6-12 point dilutions of anti-BCMA variants starting from concentrations of about 100-200 nM antibody were dispensed into each well using a BioMekFX (Beckman Coulter). Cells were then incubated on ice for 1 hr, washed with FACS buffer and incubated for 1 hr on ice with […] FACS buffer containing 2.5 μg/ml Alexa647-conjugated Goat Anti-Human IgG dispensed using BioMekFX (Beckman Coulter). Cells were then washed 2× with FACS buffer and fixed for 10 minutes in […] PBS with 2% paraformaldehyde (PFA) prior to fluorescence detection. Samples were acquired using a Beckton Dickinson LSRII FACS. Geometric Mean Fluorescence Intensity of BCMA antibody binding was analyzed using FlowJo® software (Tree Star, Inc.).

human BCMA on cells = target: T2, human BCMA on cells; assay: FACS, NCI-H929 cells
Procedure: as §1

Binder | Bmax (cyno BCMA-Fc) | EC50 (cyno BCMA-Fc) [nM] | Kd (human BCMA-Fc [1]) [nM] | koff (human BCMA-Fc [1]) [s⁻¹] | kon (human BCMA-Fc [1]) [M⁻¹ s⁻¹] | Bmax (human BCMA-Fc [2]) | EC50 (human BCMA-Fc [2]) [nM] | Bmax (cynomolgus BCMA on cells) [MFI] | Kd (cynomolgus BCMA on cells) [nM] | Bmax (human BCMA on cells) [MFI] | Kd (human BCMA on cells) [nM]
2288-A03 (antibody, V domains shown, also called Antibody 15) VH: EVQLVESGGGLVQPGGSLRLSCAASGFNINNSWIHWVRQAPGKGLEWVGWIYPYIGFTEYADSVKGRFTISADTSKNTAYLQMNSLRAEDTAVYYCARDYDLRYLTGVLDYWGQGTLVTVSS VL: not shown | 3.02e+06 | 0.57 | 0.557 | 0.000516 | 927000 | 4.24e+06 | 0.56 | 46800 | 1.8 | 16300 | 4.8
2213-A06 (antibody, V domains shown, also called Antibody 23) VH: EVQLVESGGGLVQPGGSLRLSCAASGFNISSYAIHWVRQAPGKGLEWVGVISPYGGYTEYADSVKGRFTISADTSKNTAYLQMNSLRAEDTAVYYCARDFYDRYSTYVLDYWGQGTLVTVSS VL: not shown | 2.23e+06 | 39 | 2.08 | 0.00283 | 1.36e+06 | 3.68e+06 | 0.2 | 3620 | 15.1 | 2510 | 5.3
2291-F10 (antibody, V domains shown, also called Antibody 27) VH: EVQLVESGGGLVQPGGSLRLSCAASGFNIDPYTIHWVRQAPGKGLEWVGWISPYDGYTEYADSVKGRFTISADTSKNTAYLQMNSLRAEDTAVYYCARDYYDRYSTYVLDYWGRGTLVTVSS VL: not shown | 3.43e+06 | 0.06 | 0.178 | 9.65e-05 | 541000 | 3.72e+06 | 0.1 | 66500 | 0.7 | 33800 | 5.4
2291-D07 (antibody, V domains shown, also called Antibody 26) VH: EVQLVESGGGLVQPGGSLRLSCAASGFNIKDTYIHWVRQAPGKGLEWVGVISPYDGYTEYADSVKGRFTISADTSKNTAYLQMNSLRAEDTAVYYCAHDFYDRYSTYVLDYWGQGTLVTVSS VL: not shown | 3.94e+06 | 0.03 | 0.948 | 0.000414 | 437000 | 4.08e+06 | 0.03 | 67900 | 0.5 | 28700 | 3.8
2291-G05 (antibody, V domains shown, also called Antibody 24) VH: EVQLVESGGGLVQPGGSLRLSCAASGFNIAAYTIHWVRQAPGKGLEWVGWISPYGGYTEYADSVKGRFTISADTSKNTAYLQMNSLRAEDTAVYYCARDFHDRYATFVLDYWGQGTLVTVSS VL: not shown | 3.38e+06 | 0.09 | 0.962 | 0.000423 | 440000 | 3.91e+06 | 0.13 | 62700 | 1 | 23200 | 1.4
2291-A04 (antibody, V domains shown, also called Antibody 28) VH: EVQLVESGGGLVQPGGSLRLSCAASGFNISSYGIHWVRQAPGKGLEWVGFISPYDGYTEYADSVKGRFTISAGTSKNTAYLQMNSLRAEDTAVYYCARDFNDRYFTYVLDYWGQGTLVTVSS VL: not shown | 4.23e+06 | 0.2 | 0.716 | 0.000349 | 487000 | 4.6e+06 | 0.23 | 63800 | 1.2 | 33900 | 5
2291-E06 (antibody, V domains shown, also called Antibody 25) VH: EVQLVESGGGLVQPGGSLRLSCAASGFNISPYTIHWVRQAPGKGLEWVAHIFPSGGYTDYADSVKGRFTISADTSKNTAYLQMNSLRAEDTAVYYCARDFYDRYATYVLDYWGQGTLVTVSS VL: not shown | 3.36e+06 | 0.13 | 0.763 | 0.000357 | 468000 | 4.11e+06 | 0.21 | 68300 | 1.4 | 34400 | 5.8
